B1: human granzyme A: Tryptase-like serine protease (GZMA, NM_006144) used as granule stored reporter (protein, UniProt P12544 29-262, looked up)
Granzyme A: IIGGNEVTPHSRPYMVLLSLDRKTICAGALIAKDWVLTAAHCNLNKRSQVILGAHSITREEPTKQIMLVKKEFPYPCYDPATREGDLKLLQLMEKAKINKYVTILHLPKKGDDVKPGTMCQVAGWGRTHNSASWSDTLREVNITIIDRKVCNDRNHYNFNPVIGMNMVCAGSLRGGRDSCNGDSGSPLLCEGVFRGVTSFGLENKCGDPRGPGVYILLSKKHLNWIIMTIKGAV
B2: human proteinase 3: Elastase-like serine protease (PRTN3, NM_002777) used as granule stored reporter (protein, UniProt P24158 28-248, looked up)
Myeloblastin: IVGGHEAQPHSRPYMASLQMRGNPGSHFCGGTLIHPSFVLTAAHCLRDIPQRLVNVVLGAHNVRTQEPTQQHFSVAQVFLNNYDAENKLNDVLLIQLSSPANLSASVATVQLPQQDQPVPHGTQCLAMGWGRVGAHDPPAQVLQELNVTVVTFFCRPHNICTFVPRRKAGICFGDSGGPLICDGIIQGIDSFVIWGCATRLFPDFFTRVALYVDWIRSTLR
B3: neutrophil elastase: Elastase-like serine protease (ELA2, NM_001972) used as granule stored reporter (protein, UniProt P08246 30-267, looked up)
Neutrophil elastase: IVGGRRARPHAWPFMVSLQLRGGHFCGATLIAPNFVMSAAHCVANVNVRAVRVVLGAHNLSRREPTRQVFAVQRIFENGYDPVNLLNDIVILQLNGSATINANVQVAQLPAQGRRLGNGVQCLAMGWGLLGRNRGIASVLQELNVTVVTSLCRRSNVCTLVRGRQAGVCFGDSGSPLVCNGLIHGIASFVRGGCASGLYPDAFAPVAQFVNWIDSIIQRSEDNPCPHPRDPDPASRTH
B4: human chymase: Chymase-like serine protease (CMA1, NM_001836) used as granule stored reporter (protein, UniProt P23946 22-247, looked up)
Chymase: IIGGTECKPHSRPYMAYLEIVTSNGPSKFCGGFLIRRNFVLTAAHCAGRSITVTLGAHNITEEEDTWQKLEVIKQFRHPKYNTSTLHHDIMLLKLKEKASLTLAVGTLPFPSQFNFVPPGRMCRVAGWGRTGVLKPGSDTLQEVKLRLMDPQACSHFRDFDHNLQLCVGNPRKTKSAFKGDSGGPLLCAGVAQGIVSYGRSDAKPPAVFTRISHYRPWINQILQAN

Experiments:
Assay type in all cases: cell-based, Rat
[1] = tested on: anti-TNP IgE labelled RBL2H3-hGB cells; assay: IgE-allergen sensor, granzyme B release (Example 16); settings: substrate 1 uM
Source text: This example describes the use of the sensor for testing modulators of mast cells granule exocytosis widely used to find novel anti-allergic compounds as illustrated in FIG. 1. RBL2H3 were stably transfected with human granzyme B under the control of hCMV-MoLV5′LTR chimeric promoter as described in example 3. A mouse IgE monoclonal antibody against trinitrophenyl hapten was purified from IgELb4 hybridoma purchased from ATCC (TIB-141). TNP-N-hydroxysuccinimide esther was purchased from Biosearch Technologies Inc and conjugated to bovine serum albumin (BSA) using a standard protocol. Conjugation was determined at pH 7.0 by measuring TNP absorbance at 348 nm using 15400 units per mol per 10 mm light pass length as the extinction coefficient of TNP. Molar ratio of TNP to BSA in the TNP-BSA conjugate was calculated assuming the molecular weight of BSA is 60000. Sensor cells were cultivated as adherent cells for 48 hours in 6 well plates and then washed with HBSS and harvested by pippeting. 500.000 cells were labelled with anti-TNP IgE at 1 ug/ml_in HBSS for 60 minutes at 37 Celsius degrees, washed with 10 mL of HBSS, centrifuged and pellet was resuspended in 1 mL of HBSS. In a black wall 384 well plate 10 uL of serial dilutions of TNP-BSA in HBSS were added each containing the FRET-based granzyme B substrate FAM-[…]TAMRA (FAM-[…]-TAMRA) at 1 uM final concentration whose cleavage was detected by fluorescence using excitation at 485 nm and emission at 535 nm. Dilutions of TNP-BSA tested were: 1 ug/mL, 1 ng/mL, 1 pg/mL and 1 fg/mL. To each well 10 uL (5000 cells) of anti-TNP IgE labelled cells were added and plates were incubated at 37 Celsius degrees in a BMG-Labtech microplate fluorimeter. Microplate was read at 0, 15, 30, 45 and 60 minutes. The following controls were included: (1) wells with anti-TNP IgE labelled cells plus granzyme B substrate but without TNP-BSA; (2) wells with non-labelled cells plus granzyme B substrate and TNP-BSA at 1 ug/ml_; (3) wells with granzyme B substrate and TNP-BSA at 1 ug/ml_but no cells. Each well was included by triplicate.

RBL-2H3 cells [2] = assay: Activity of granule stored protease reporters released by ionomycin, transient transfection (Example 4); settings: transiently transfected RBL-2H3, 650.000 cells, 10 uM ionomycin 1 hour, supernatant
Source text: Vectors were developed to express human granzyme A, M, H and K and human neutrophil elastase, human chymase, human cathepsin G and human proteinase 3 under the control of hCMV-MoMLV5′LTR chimeric promoter and RBL-2H3 cells were individually transfected by electroporation using a microporator (Gentelbio, South Korea) with the above plasmids and also with human granzyme B plasmid as control and with cytosolically truncated hNGFR receptor as a surface tag for determination of the percentage of transfection by flow cytometry with a anti-hNGFR monoclonal antibody conjugated to FITC (Miltenyi Biotec, Germany). After 48 hours cells were harvested by pipetting, washed with HBSS buffer and counted. 650.000 cells in 200 microliters of HBSS buffer were treated in suspension with 10 uM ionomycin for 1 hour and after centrifugation at 400 g for 5 minutes the supernatants were analysed for activity with specific fluorescent substrates. Controls of cells incubated with HBSS buffer only were included. Fluorescent substrates were specific tetrapeptides conjugated to 7-Amido-4-Methylcoumarin (AMC) and were custom synthesized by a custom peptide supplier. Specific substrates were: VANR-AMC for granzyme A; KVPL-AMC for granzyme M; PTSY-AMC for granzyme H; YRFK-AMC for granzyme K; PEEI-AMC for human neutrophil elastase; PTSY-AMC for human chymase; PTSY-AMC for human cathepsin G; VADC-AMC for human proteinase 3 and IEPD-AMC for human granzyme B. Released AMC was measured by excitation at 360 nm and emission at 460 nm in a BMG Labtech microplate fluorimeter in 96 well microplates using 125 microliters of supernatant and 125 microliters of specific substrate at 400 micromol per liter in HBSS buffer. Microplates were incubated at 37 Celsius degrees on the reader and were kinetically read at 0, 15, 30, 45 and 60 minutes. Percentage of transient electroporation measured using truncated hNGFR tag and anti-hNGFR-FITC antibody was about 60 percent.

RBL-2H3 cells [3] = assay: Ionomycin-induced release of granule stored protease reporters from stable cell lines (Example 5); settings: stable RBL-2H3, 10 uM ionomycin 1 hour, supernatant equivalent to 100.000 cells, AMC substrate
Source text: As either tryptase-like enzymes, chymase-like enzymes, elastase-like enzymes or asp-ase like enzymes are useful for the methods of the present invention we selected human granzyme A (tryptase-like enzyme); human granzyme B (Asp-ase-like enzyme); human chymase (chymase-like enzyme) and human proteinase 3 (elastase-like enzyme) for further examples. Vectors were developed for stable expression of human granzyme A, human granzyme B, human chymase and human proteinase 3 under the control of hCMV-MoMLV5′LTR chimeric promoter. A hygromycin resistance cassette was included in the vector backbone for selection of stable populations of cells. The vector also included an IRES-NGFR cassette cloned downstream of granule stored protease reporter and thus, under the control of hCMV-MoMLV5′LTR promoter for flow cytometry and/or selection by MACS of stable cells expressing either human granzyme A or human granzyme B or human chymase or human proteinase 3. Each vector was individually electroporated using a microporator (Digital Bio Technology, South Korea) into RBL-2H3 and after 48 hours hygromycin at 1500 ug/mL was added to culture for selection. After selection for about 2 weeks cells were analysed by flow cytometry (Guava Technologies, USA) with an antibody against NGFR coupled to FITC. Positive population where magnetically separated by MACS using anti-NGFR-MACS sup.R (Miltenyi Biotec, Germany). Sorted populations were again analysed again by flow cytometry to check the sorting efficiency. Percentage of NGFR positive cells was always higher than 65 percent. Cells were seeded the night before experiment in 24 well microplates at 650.000 cells per well in 800 microliters of complete cell culture medium. Next day cells were washed with HBSS buffer and were treated with 10 uM ionomycin for 1 hour at 37 Celsius degrees in 200 uL of HBSS buffer and after centrifugation at 400 g for 5 minutes supernatants were analysed for activity with specific fluorescent substrates. Controls of cells incubated with HBSS buffer only were included. Fluorescent substrates were: VANR-AMC for granzyme A; PEEI-AMC for human neutrophil elastase; PTSY-AMC for human chymase; VADC-AMC for human proteinase 3 and IEPD-AMC for human granzyme B. Released AMC was measured by excitation at 360 nm and emission at 460 nm in a BMG Labtech microplate fluorimeter in 96 well microplates using 125 microliters of supernatant and 125 microliters of specific substrate at 400 micromol per liter in HBSS buffer. Microplates were incubated at 37 Celsius degrees on the reader and were kinetically read at 0, 15, 30, 45 and 60 minutes. Control wells with substrate only in HBSS buffer were included to subtract autofluorescence of substrates to both cells treated with ionomycin and to cells treated with HBSS buffer only. Autofluorescence of peptide substrates in HBSS buffer was about 3000 while fluorescence of cells treated with HBSS buffer only for 60 minutes at 37 Celsius degrees was about 5000, that is basal release in the absence of exocytosis modulator was about 2000. In contrast, fluorescence of ionomycin-induced release of human granzymes A and B was about 20.000 for a signal to background of 10 when using the supernatant equivalent to 100.000 cells; fluorescence of ionomycin-induced release of human chymase was about 30.000 for a signal to background of 15 when using the supernatant equivalent to 100.000 cells and fluorescence of ionomycin-induced release of human proteinase 3 was about 12.000 for a signal to background of 6 when using the supernatant equivalent to 100.000 cells. Thus, tryptase-like enzymes, chymase-like enzymes, elastase-like enzymes or asp-ase like enzymes can be stably expressed into granules of hemopoyetic cells with professional regulated exocytosis and such granule stored proteases are released by exocytosis modulators to produce sensors with good signal to background ratios using specific AMC-coupled peptide substrates. […]

Row | Molecule | Fluorescence after 30 minutes at 37° C. ([1]; TNP-BSA 1 pg/mL, 5000 cells with anti-TNP IgE) | Fluorescence after 30 minutes at 37° C. ([1]; TNP-BSA 1 ng/mL, 5000 cells with anti-TNP IgE) | Fluorescence after 30 minutes at 37° C. ([1]; TNP-BSA 1 ug/mL, 5000 cells with anti-TNP IgE) | Fluorescence after 30 minutes at 37° C. ([1]; TNP-BSA 1 ug/mL, 5000 cells without anti-TNP IgE (non-labelled)) | Fluorescence after 30 minutes at 37° C. ([1]; TNP-BSA 1 fg/mL, 5000 cells with anti-TNP IgE) | enzymatic activity of released reporter with specific AMC substrate (RBL-2H3 cells [2]) | fluorescence of ionomycin-induced release (RBL-2H3 cells [3]) | signal to background (RBL-2H3 cells [3])
1 | TNP-BSA: trinitrophenyl hapten conjugated to bovine serum albumin, model allergen | 35884 | 34556 | 30942 | 2935 | 29826 | – | – | –
2 | B1 | – | – | – | – | – | higher activity than granzyme K | about 20.000 | 10
3 | B2 | – | – | – | – | – | equivalent activity that was higher than that of human granzyme M | about 12.000 | 6
4 | B3 | – | – | – | – | – | equivalent activity that was higher than that of human granzyme M | – | –
5 | B4 | – | – | – | – | – | highest activity | about 30.000 | 15

From patent US9347942B2, “Ultrasensitive cell based sensors and uses thereof” (CANVAX BIOTECH SL, priority 2010, dated 2016)
